# Measured values taken from patent publication US20220267421A1 (INVOX PHARMA, published 2022).
# T1: human E-Cadherin (R&D systems, 8505-EC) (human, UniProt P12830 155-707)
# T1 sequence (looked up): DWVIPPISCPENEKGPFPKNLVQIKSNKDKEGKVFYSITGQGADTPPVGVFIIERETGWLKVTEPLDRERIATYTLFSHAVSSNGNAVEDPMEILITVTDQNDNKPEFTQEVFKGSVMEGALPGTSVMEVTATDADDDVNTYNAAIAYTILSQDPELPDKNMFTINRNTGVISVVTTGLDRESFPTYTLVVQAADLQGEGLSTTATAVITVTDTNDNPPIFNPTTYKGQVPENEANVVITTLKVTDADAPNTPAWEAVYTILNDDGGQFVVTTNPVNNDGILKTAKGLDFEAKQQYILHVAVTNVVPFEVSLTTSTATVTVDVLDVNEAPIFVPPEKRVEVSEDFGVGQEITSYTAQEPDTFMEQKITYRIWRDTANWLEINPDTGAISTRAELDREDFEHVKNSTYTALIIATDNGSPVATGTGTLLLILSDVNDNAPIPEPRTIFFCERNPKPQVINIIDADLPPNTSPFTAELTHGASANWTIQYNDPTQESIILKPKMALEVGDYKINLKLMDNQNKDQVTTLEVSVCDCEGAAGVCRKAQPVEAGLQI
# T2: human CEACAM-5-His-Fc (Sino Biological, 1077-H03H) (human, UniProt P06731 35-685)
# T2 construct: not shown: His tag and Fc
# T2 sequence (looked up): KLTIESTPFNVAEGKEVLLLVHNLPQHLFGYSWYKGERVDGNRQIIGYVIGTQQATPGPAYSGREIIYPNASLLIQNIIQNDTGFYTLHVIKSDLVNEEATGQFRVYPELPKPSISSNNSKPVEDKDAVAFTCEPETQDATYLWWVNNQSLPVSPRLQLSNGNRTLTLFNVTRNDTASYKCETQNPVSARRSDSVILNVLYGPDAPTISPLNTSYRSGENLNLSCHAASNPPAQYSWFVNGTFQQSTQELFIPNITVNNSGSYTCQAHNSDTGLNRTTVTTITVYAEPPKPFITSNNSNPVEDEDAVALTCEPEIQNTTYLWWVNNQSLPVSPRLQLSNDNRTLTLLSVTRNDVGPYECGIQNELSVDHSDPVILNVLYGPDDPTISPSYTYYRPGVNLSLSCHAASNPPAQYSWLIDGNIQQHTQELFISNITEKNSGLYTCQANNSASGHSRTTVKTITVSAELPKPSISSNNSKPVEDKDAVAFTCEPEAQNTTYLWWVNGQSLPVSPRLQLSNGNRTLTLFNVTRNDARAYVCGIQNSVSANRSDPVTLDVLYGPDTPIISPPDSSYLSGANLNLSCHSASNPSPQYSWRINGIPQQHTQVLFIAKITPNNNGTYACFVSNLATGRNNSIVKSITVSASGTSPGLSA
# T3: human EpCAM-hFc (in-house production) (human, UniProt P16422 24-265, limits assumed)
# T3 construct: not shown: human Fc
# T3 sequence (looked up): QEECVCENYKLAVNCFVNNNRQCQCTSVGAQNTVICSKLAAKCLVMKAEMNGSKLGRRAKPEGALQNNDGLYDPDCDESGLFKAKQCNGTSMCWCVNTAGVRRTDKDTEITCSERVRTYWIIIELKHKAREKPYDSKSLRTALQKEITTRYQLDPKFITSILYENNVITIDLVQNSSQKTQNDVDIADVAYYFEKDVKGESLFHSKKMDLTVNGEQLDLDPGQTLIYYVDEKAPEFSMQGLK
# Tests used:
# [1] = biological target: T1, human E-Cadherin (R&D systems, 8505-EC); assay: ELISA, antigen coated at 1 ug/ml
# Experimental: (§1) A similar protocol was used as described in section 1.2.1 in which maxisorp plates were coated with 1 μg/ml of recombinant human MSLN-His-Avi, human CEACAM-5-His-Fc (Sino Biological, 1077-H03H), human E-Cadherin (R&D systems, 8505-EC), human Thrombomodulin (Peprotech, 100-58) or human EpCAM-hFc (in-house production). Binding of the anti-MSLN mAbs, tested at a concentration range of 0.02 to 1000 nM (3-fold dilutions) was detected using anti-human Fab-HRP (Sigma, A0293). Positive controls for the respective molecules included human EpCAM antibody (clone 2G8 from patent no. U.S. Pat. No. 8,236,308 B2) CEACAM-5 antibody (clone hMN15 from patent no. U.S. Pat. No. 8,771,690 B2), human E-Cadherin antibody, mouse IgG2b clone 180215 (R&D systems, MAB1838), human Thrombomodulin antibody, mouse IgG1, clone 501733 (R&D systems, MAB3947). The latter two were detected using goat anti mouse Fc-HRP (Sigma, A9309) as secondary mAb.
# [2] = biological target: T2, human CEACAM-5-His-Fc (Sino Biological, …); assay: ELISA, antigen coated at 1 ug/ml
# Experimental: as §1
# [3] = biological target: T3, human EpCAM-hFc (in-house production); assay: ELISA, antigen coated at 1 ug/ml
# Experimental: as §1
# [4] = biological target: human Thrombomodulin (Peprotech, 100-58) (human, UniProt P07204 19-515); assay: ELISA, antigen coated at 1 ug/ml
# Experimental: as §1
# human MSLN-His-Avi [5] = biological target: T4, human MSLN-His-Avi (human, UniProt Q13421 296-598, single biotin (BirA) in the biotinylated form); assay: SPR (Biacore), hMSLN-His-Avi immobilised at 50 RU, mAb injected
# T4 construct: Monomeric, made in HEK293-6E; Used both immobilised and in solution; also called hMSLN-His-Avi; biotinylated hMSLN-His-Avi
# Experimental: (§2) Human MSLN-His-Avi was immobilised on flow cell 2 on a CM5 Series S BIAcore sensor chip (GE Healthcare, BR100530) using an amine coupling kit (GE Healthcare, BR10050) to approximately 200 response units (RU). Flow cell 1 was left blank for subtraction. HEK293-6E supernatants or purified proteins were adjusted with HBS-EP+(GE Healthcare) to approximately 50 nM anti-MSLN mAb per sample. Samples were injected over flow cell 1 and 2 for 2.5 min at 30 μl/min and then allowed to dissociate in HBS-EP buffer for 2.5 min. Regeneration was achieved by injecting 10 mM glycine pH 1.5 (GE Healthcare, BR100354) for 30 seconds at a rate of 30 μl/min. Subtracted data (flow cell 2−flow cell 1) were analysed using BIAevaluation 3.2 Software (GE Healthcare).
# (§3) For each bin described in 2.1.3, the binding kinetics were determined using the same method as described in section 2.1.2, except that human or cyno MSLN-His-Avi was immobilised at 50 or 100 RU. Clones were tested at a concentration range of 81 nM to 0.33 nM in 3-fold dilutions.
# human MSLN-His-Avi [6] = biological target: T4, human MSLN-His-Avi; assay: SPR (Biacore), hMSLN-His-Avi immobilised at 100 RU, mAb injected
# Experimental: as §2, §3
# T4 sequence (Q13421 other isoform, or with tags, fused parts or gaps): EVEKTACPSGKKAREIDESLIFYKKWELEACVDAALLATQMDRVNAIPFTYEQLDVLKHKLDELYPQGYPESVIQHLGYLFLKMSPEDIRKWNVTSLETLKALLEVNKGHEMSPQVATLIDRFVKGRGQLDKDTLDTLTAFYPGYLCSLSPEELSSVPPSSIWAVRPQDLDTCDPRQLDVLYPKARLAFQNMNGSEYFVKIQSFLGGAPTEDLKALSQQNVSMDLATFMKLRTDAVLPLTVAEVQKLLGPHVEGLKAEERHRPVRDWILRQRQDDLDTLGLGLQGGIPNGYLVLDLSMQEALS
# Sequence of human Thrombomodulin (Peprotech, 100-58) (P07204 19-515 limits assumed): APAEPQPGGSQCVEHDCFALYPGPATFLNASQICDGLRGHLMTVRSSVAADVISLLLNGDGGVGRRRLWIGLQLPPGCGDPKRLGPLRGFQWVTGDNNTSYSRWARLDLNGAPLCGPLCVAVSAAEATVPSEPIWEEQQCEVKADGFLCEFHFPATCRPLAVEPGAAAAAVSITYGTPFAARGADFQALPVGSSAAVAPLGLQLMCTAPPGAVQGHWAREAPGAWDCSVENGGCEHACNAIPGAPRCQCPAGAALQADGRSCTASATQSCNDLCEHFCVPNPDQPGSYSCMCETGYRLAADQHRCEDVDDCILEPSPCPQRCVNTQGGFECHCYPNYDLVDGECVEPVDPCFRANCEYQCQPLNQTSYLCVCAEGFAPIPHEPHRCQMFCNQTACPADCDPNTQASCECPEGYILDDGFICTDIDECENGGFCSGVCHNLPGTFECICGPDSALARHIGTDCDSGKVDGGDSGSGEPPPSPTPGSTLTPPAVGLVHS
binding result [1],binding result [2],binding result [3],binding result [4],Kd (human MSLN-His-Avi [5]) [nM],Kd (human MSLN-His-Avi [6]) [nM],Binder
no binding (tested: 1000 nM),no binding (tested: 1000 nM),no binding (tested: 1000 nM),no binding (tested: 1000 nM),0.21,0.12,"G1-AA/FS28-026 (antibody, human IgG1, kappa, L234A L235A, V domains shown, IgG1 LALA; also called FS28-026 mAb (in G1-AA format)) VH: EVQLLESGGGLVQPGGSLRLSCAASGFTFSNYAMTWVRQAPGKGLEWVSSITPYYSKTDYADSVKGRFTISRDNSKNTLYLQMNSLRAEDTAVYYCARNWYRFDYWGQGTLVTVSS VL: not shown"
no binding (tested: 1000 nM),no binding (tested: 1000 nM),no binding (tested: 1000 nM),no binding (tested: 1000 nM),1.24,0.76,"G1-AA/FS28-091 (antibody, human IgG1, kappa, L234A L235A, V domains shown, IgG1 LALA; also called FS28-091 mAb (in G1-AA format)) VH: EVQLLESGGGLVQPGGSLRLSCAASGFTFTNYAMSWVRQAPGKGLEWVSSIKPYDGNTYYADSVKGRFTISRDNSKNTLYLQMNSLRAEDTAVYYCARNRWVFDYWGQGTLVTVSS VL: not shown"
no binding (tested: 1000 nM),no binding (tested: 1000 nM),no binding (tested: 1000 nM),no binding (tested: 1000 nM),0.77,0.23,"G1-AA/FS28-024 (antibody, human IgG1, kappa, L234A L235A, V domains shown, Complete human IgG1 with LALA mutation; also called FS28-024 mAb (in G1-AA format)) VH: EVQLLESGGGLVQPGGSLRLSCAASGFTLSYSSMSWVRQAPGKGLEWVSFITPSTGYTHYADSVKGRFTISRDNSKNTLYLQMNSLRAEDTAVYYCARRALTFDYWGQGTLVTVSS VL: EIVLTQSPGTLSLSPGERATLSCRASQSVSSSYLAWYQQKPGQAPRLLIYGASSRATGIPDRFSGSGSGTDFTLTISRLEPEDFAVYYCQQASSYPLTFGQGTKVEIKR"
